From the MegaScale stability set (Tsuboyama et al. 2023)

B1: EEHEE_rd4_0763 (parent)
chain: LTVHVGNVTYHFDNPEQAEEWAKRMAKKYQGQIHVKDGQFRIE
B2: EHEE_rd2_1257 (parent)
chain: EEERTFTNEEEARKAKKEAEKRGLRVTVTKDGTTWRVRIG

Variants of: B1
Test: folding stability dG (cDNA display proteolysis); higher = more stable
Conditions: PBS, room temperature

Folding stability dG [kcal/mol] of substitutions, site by site:
L1: G 1.77 | N 2.06 | E 0.877 | W 3.2 | M 1.84 | Y 2.92 | H 2.13 | S 2.03 | A 2.1 | I 1.7 | K 1.51 | P 1.73 | F 2.66 | V 1.86 | C 2.7 | Q 1.45 | T 2.05 | R 1.7 | D 0.974
H4: S 1.72 | D 0.78 | F 1.6 | Y 1.59 | W 1.82 | L 1.88 | T 1.85 | P 0.289 | V 1.97 | I 1.9 | R 1.82 | K 1.68 | E 1.24 | M 1.8 | Q 1.72 | N 1.27 | A 1.55 | G 0.951
T2: M 1.53 | E 1.48 | D 1.22 | A 1.51 | I 1.59 | L 1.64 | P 0.538 | F 1.58 | R 1.48 | V 1.61 | H 1.53 | K 1.41 | S 1.55 | G 0.823 | W 1.5 | Y 1.59 | Q 1.53 | N 1.14
N7: A 1.6 | K 1.65 | D 1.41 | G 1.71 | M 1.57 | R 1.76 | V 1.4 | E 1.37 | H 1.69 | S 1.7 | L 1.55 | P 1.45 | F 1.62 | T 1.67 | I 1.49 | Q 1.56 | C 2.65
G6: S 1.11 | R 1.31 | F 1.84 | W 1.5 | D 1.43 | I 1.18 | T 0.772 | Y 1.5 | L 1.47 | P 0.447 | N 1.71 | Q 1.18 | E 1.01 | H 1.69 | A 1.41 | C 2.58 | K 1.18 | M 1.51 | V 0.969
V3: H 0.452 | K 0.424 | L 1.06 | F 1.03 | Y 0.756 | M 0.815 | G 0.606 | S 0.339 | I 1.09 | T 0.36 | C 1.34 | P 0.241 | R 0.352 | A 0.668 | D 0.189 | Q 0.344 | N 0.243 | E 0.235 | W 0.755
V5: H 1.26 | D 0.649 | I 1.69 | F 1.74 | Q 0.495 | A 1.32 | S 0.647 | R 0.733 | L 1.54 | G 0.415 | W 1.82 | N 0.616 | C 2.66 | M 1.48 | T 0.582 | P 0.391 | Y 1.41 | K 0.531 | E 0.355

Variants of: B2
Test: as above
Conditions: PBS, room temperature

Folding stability dG [kcal/mol], by site and new letter:
G40: E 2.56 | F 3.04 | Q 2.38 | T 2.51 | M 2.55 | V 2.73 | P 0.916 | I 2.71 | N 2.07 | L 2.71 | R 2.08 | H 2.68 | A 2.19 | S 2.6 | D 2.18 | Y 3.08 | W 3.26 | K 2.07
V37: D 0.331 | C 1.05 | W 0.056 | E 0.078 | L 2.17 | M 1.61 | Y -0.22 | I 1.7 | F 0.864 | P 0.556
W35: E -0.181 | L 0.579 | I 1.3 | Q -0.107 | D -0.409 | V 0.55 | Y 1.35 | S -0.143 | P 0.178 | F 1.32 | A -0.238 | K -0.11 | H 0.478 | T 0.358 | G -0.505 | R 0.023 | M 0.332 | N -0.29
R38: Y 2.17 | L 2.27 | Q 1.74 | T 2.33 | S 1.93 | V 2.45 | D 1 | E 1.48 | W 2.11 | A 1.71 | K 2.08 | M 2.04 | I 2.59 | F 2.23 | H 1.94 | N 1.71 | G 0.853
R36: A 0.9 | I 3.03 | K 2.08 | V 2.78 | T 2.15 | H 1.81 | S 1.17 | P 0.209 | N 1.12 | F 2.23 | G -0.199 | L 2.15 | E 0.524 | M 1.65 | W 1.7 | Y 2.47 | C 1.91 | Q 1.23
V28: Y 0.822
D31: F 1.69 | Y 1.75 | M 1.74 | W 1.51 | I 2.22 | T 1.76 | N 1.57 | S 1.72 | G 0.303 | C 2.04 | H 1.78 | L 1.74 | V 2.27 | K 1.34 | Q 1.7 | A 1.41 | E 2.15 | R 1.32
G32: T 0.399 | L 0.595 | R 0.337 | A 0.985 | D 1.26 | S 0.582 | H 0.713 | F 0.011 | Q 0.902 | N 0.966 | E 1.26 | I -0.071 | M 0.351 | V 0.363 | Y 0.01 | K 0.693
K30: P 0.867 | V 1.83 | W 3.02 | M 1.75 | T 2.57 | D 1.24 | I 1.66 | L 1.99 | N 1.9 | A 1.53 | E 1.31 | H 2.22 | Y 3.22 | Q 2.13 | R 2.04 | G 1.32 | S 2.14 | F 3.53
T29: Q 1.63 | S 1.62 | E 1.87 | D 1.2 | L 1.8 | V 2.18 | C 1.83 | W 2.6 | I 2.36 | K 1.34 | R 1.51 | F 2.32 | Y 2.33 | M 1.83 | H 1.7 | A 1.29 | N 1.09 | G 0.178
T34: Y 2.4 | K 1.97 | H 2.12 | V 2.62 | F 2.53 | A 1.68 | G 1.83 | D 1.53 | W 2.08 | M 2.37 | I 2.63 | E 1.81 | R 1.87 | S 1.82 | Q 1.97 | N 2.02 | L 2.76
T33: I 1.89 | Y 2.15 | M 2 | N 2.63 | C 2.5 | K 2.05 | V 1.84 | P 2.58 | A 2.13 | G 2.28 | E 2.77 | W 1.65 | D 3.11 | H 2.11 | F 2.18 | R 1.57 | S 2.15 | Q 2.27 | L 2.12
I39: G -0.238 | Y 1.66 | T 1.27 | H 0.156 | S 0.837 | W 1.62 | Q 0.241 | L 1.31 | V 1.64 | E 0.258 | M 1.37 | N -0.51 | A 0.675 | F 1.75 | R -0.309 | P 0.239 | K -0.799
